167 variants from the RNAGym collection of RNA variant scans (doi:10.7554/elife.90254) can be followed below.

To fix the notation:
B1: LINE1-full (parent)
chain: UACGUAGGUGGUUUUCCCCUGAUAGUGCUAAGGGGGCCUGGAAGUUUGGACUGGGCAGAGCUCAACACAGCGUGGCAAAGUGGCUGUGGCUAGACUGCCUCUCUGGAUUCCUCGUCACUCAGCAGGGCAUCUCUGAGAGAAAUGCC

In the data set the parent is B1. Briefly: self-cleavage, relative activity (ratio to wild type); higher = more cleavage; in vitro, sequencing; the parent is a self-cleaving ribozyme.
As to A124G A142G, the self-cleavage was found to be 0.72.

Regarding A121U C133U, the self-cleavage was determined as 1.8.

Take A129G C145G: the self-cleavage was found to be 1.65.

In the case of A129G C145U, the self-cleavage was 0.99.

With A124C G137U, the self-cleavage was 0.75.

Regarding A129U A142U, the self-cleavage worked out at 2.13.

G127A U130C: the self-cleavage was 1.31.

On to U115C G137A, for which the self-cleavage amounted to 1.15.

For U115C G137U, the self-cleavage is 2.16.

Regarding G122U A136U, the self-cleavage turned out to be 1.31.

In the case of C128U A129G, the self-cleavage was found to be 1.65.

Turning to G122U A142G, the self-cleavage amounted to 1.52.

With U130A A141G, the self-cleavage worked out at 1.46.

In the case of U130A A141U, the self-cleavage is 1.13.

Regarding C123U U132C, the self-cleavage came to 1.53.

With A121G G139A, the self-cleavage came out at 1.06.

As to C120U A129C, the self-cleavage turned out to be 0.82.

On to A124C A138G, for which the self-cleavage was 1.39.

On to C116U U130C, for which the self-cleavage was determined as 0.89.

Turning to C118A G125U, the self-cleavage was 1.03.

For the variant A117G G139U, the self-cleavage came out at 2.05.

For the variant A121U A124U, the self-cleavage stood at 1.54.

For the variant A121U A124G, the self-cleavage was found to be 1.31.

Consider U115C U134A, for which the self-cleavage is 0.9.

Turning to A121U A129G, the self-cleavage was found to be 1.77.

With C116A A138G, the self-cleavage came to 1.52.

With A129G A136U, the self-cleavage was 2.26.

Regarding U119A U132C, the self-cleavage was found to be 1.96.

As to A117C U119A, the self-cleavage stood at 1.77.

In the case of C120U U134C, the self-cleavage was 1.27.

As to U115C A141G, the self-cleavage worked out at 1.76.

Regarding C128U A136U, the self-cleavage came out at 1.67.

Consider C120U A141U, for which the self-cleavage stood at 0.95.

Take U119C G122U: the self-cleavage amounted to 2.35.

For U119C G122C, the self-cleavage worked out at 2.

With A129U C133A, the self-cleavage is 1.26.

A124G G125A: the self-cleavage was determined as 0.75.

Turning to U115G A121G, the self-cleavage was determined as 1.62.

With A121U G125U, the self-cleavage is 1.4.

Take A121C U143C: the self-cleavage came out at 1.99.

Regarding U115G U143C, the self-cleavage is 1.86.

On to A117U C123U, for which the self-cleavage turned out to be 0.78.

As to A124G G135U, the self-cleavage was 1.49.

With U119C A138U, the self-cleavage was 1.67.

For C123A A129U, the self-cleavage was determined as 1.31.

U115C U143C: the self-cleavage was 1.61.

Take U115C U143A: the self-cleavage was determined as 1.79.

For the variant U119A A136G, the self-cleavage stood at 1.12.

As for A117C A138U, the self-cleavage was 2.44.

For the variant A117C A138G, the self-cleavage amounted to 2.04.

Turning to A121G U132A, the self-cleavage was 1.86.

With A124C U143A, the self-cleavage was determined as 1.24.

A124C U143C: the self-cleavage turned out to be 2.43.

Regarding A121G A124C, the self-cleavage turned out to be 0.32.

Regarding A121G A124U, the self-cleavage amounted to 1.62.

In the case of A117G A124U, the self-cleavage amounted to 1.25.

Consider A129U A140U, for which the self-cleavage stood at 0.88.

For the variant A117U G126U, the self-cleavage amounted to 1.11.

In the case of A124U U134A, the self-cleavage turned out to be 1.31.

With A117U U130A, the self-cleavage worked out at 1.55.

In the case of A117U U130C, the self-cleavage was determined as 1.58.

As for U130A A142G, the self-cleavage was 1.48.

Take U119C G139U: the self-cleavage was determined as 1.47.

With U130A C145U, the self-cleavage stood at 1.79.

Take U119A A138G: the self-cleavage is 2.02.

Turning to G127U, the self-cleavage was 1.24.

G127C: the self-cleavage stood at 1.45.

As to G127A, the self-cleavage was 1.16.

Consider A117U C131U, for which the self-cleavage was 1.21.

As for A117G G125A, the self-cleavage stood at 0.99.

Take A117G G125U: the self-cleavage was 1.47.

As for U119A A129G, the self-cleavage amounted to 1.45.

With C118U U130C, the self-cleavage amounted to 0.97.

As to G122C U143C, the self-cleavage was found to be 1.57.

Turning to A117G G122U, the self-cleavage is 1.52.

For the variant A129G, the self-cleavage amounted to 1.52.

For the variant A129U, the self-cleavage came to 1.4.

Consider A129C, for which the self-cleavage worked out at 1.67.

Regarding C120A A129G, the self-cleavage came out at 1.29.

On to U119A A142C, for which the self-cleavage worked out at 1.95.

With A117U U143A, the self-cleavage is 1.23.

For C128A U130C, the self-cleavage came to 1.11.

For the variant C116U A142G, the self-cleavage is 1.27.

As for A124U C131A, the self-cleavage was 0.96.

On to G127A C128U, for which the self-cleavage is 1.13.

On to U115C C146U, for which the self-cleavage stood at 1.31.

Regarding U115C C146G, the self-cleavage stood at 1.93.

As for A117U U132A, the self-cleavage turned out to be 1.32.

As for A124U G127U, the self-cleavage came out at 1.62.

On to A121G A136U, for which the self-cleavage amounted to 1.97.

As to A129G U132A, the self-cleavage is 1.54.

C116U: the self-cleavage amounted to 1.29.

For the variant C116A, the self-cleavage was 1.16.

Take C116U A124G: the self-cleavage came out at 1.11.

For the variant G127A C145A, the self-cleavage was 1.32.

Regarding C118U A141U, the self-cleavage amounted to 1.6.

Turning to C118U A141G, the self-cleavage worked out at 1.8.

As to C118G U132A, the self-cleavage was 1.21.

A124U A136G: the self-cleavage amounted to 1.43.

For the variant U115C C128U, the self-cleavage amounted to 1.4.

For the variant A129U U132C, the self-cleavage amounted to 1.3.

In the case of A129U U132A, the self-cleavage worked out at 0.04.

On to A117G U130C, for which the self-cleavage amounted to 1.42.

In the case of A117G U130A, the self-cleavage worked out at 1.85.

For U119G A140G, the self-cleavage was 2.22.

With G126C A129G, the self-cleavage worked out at 2.02.

Regarding U119C, the self-cleavage turned out to be 1.59.

As for U119G, the self-cleavage was 1.63.

On to U119A, for which the self-cleavage amounted to 1.44.

Turning to A121G U134A, the self-cleavage stood at 1.32.

On to C118A A142G, for which the self-cleavage came to 1.41.

In the case of G127A U132C, the self-cleavage was 0.78.

Turning to A129U U130C, the self-cleavage turned out to be 1.49.

On to U119A G144A, for which the self-cleavage came to 1.68.

Consider C128U U132C, for which the self-cleavage is 1.37.

As to G126A A140G, the self-cleavage is 1.49.

As to A124G G144C, the self-cleavage was found to be 0.68.

Take A129G C131U: the self-cleavage was 0.92.

A117C C128U: the self-cleavage is 1.3.

Take U115G A129U: the self-cleavage was found to be 1.34.

As to G125U U134C, the self-cleavage was found to be 1.2.

As to U115C C116U, the self-cleavage came out at 1.18.

With A117G G144A, the self-cleavage was determined as 0.73.

On to A121G U143C, for which the self-cleavage is 1.69.

For the variant G127A A141G, the self-cleavage stood at 0.99.

In the case of G127A A136G, the self-cleavage was 1.5.

In the case of G127A A136U, the self-cleavage was 1.65.

As for C123A A138G, the self-cleavage came out at 1.82.

In the case of C118A U132C, the self-cleavage amounted to 1.

In the case of A129G C146U, the self-cleavage is 1.59.

As to A129C U130C, the self-cleavage was found to be 1.02.

A117U A141U: the self-cleavage was 2.24.

On to A117U A141G, for which the self-cleavage was determined as 1.1.

For A124U A140U, the self-cleavage was found to be 1.09.

Turning to C128U A141U, the self-cleavage amounted to 1.62.

With U119C A141C, the self-cleavage worked out at 1.84.

As for U119C A141U, the self-cleavage was 2.27.

On to C120A G122U, for which the self-cleavage came to 2.31.

Turning to A124U U132A, the self-cleavage came to 1.56.

Take C118U A129G: the self-cleavage was determined as 1.81.

As to G122A G137U, the self-cleavage came out at 1.23.

Take A121C G127U: the self-cleavage is 1.44.

With G125A A138G, the self-cleavage was determined as 1.01.

Regarding C123U G135C, the self-cleavage came to 1.97.

For the variant U115C U132A, the self-cleavage is 2.4.

As for U115C U132C, the self-cleavage amounted to 1.84.

On to A117G U119A, for which the self-cleavage amounted to 1.17.

Regarding A117G U119C, the self-cleavage worked out at 1.47.

For the variant A117G U119G, the self-cleavage was 1.87.

As for A129U U143C, the self-cleavage is 1.64.

On to A129U U143A, for which the self-cleavage was found to be 1.59.

With A129G A142G, the self-cleavage stood at 1.67.

In the case of C118U A121G, the self-cleavage amounted to 1.58.

As for C123U A124G, the self-cleavage was 1.25.

For the variant A117C G139A, the self-cleavage was 1.65.

As to A124C U132C, the self-cleavage is 1.11.

For U119A U143A, the self-cleavage came to 1.16.

Consider A129C U134A, for which the self-cleavage turned out to be 1.59.

For the variant A129C U134C, the self-cleavage turned out to be 1.54.

Turning to U119C U143A, the self-cleavage is 1.94.

As for A129G A141C, the self-cleavage stood at 2.06.

With A121G A141U, the self-cleavage is 1.77.

U119A A140G: the self-cleavage is 1.29.

U119A A140U: the self-cleavage was determined as 1.69.

C120U U130A: the self-cleavage stood at 1.58.

As to A121U G127A, the self-cleavage was 0.76.

As for A121U G137A, the self-cleavage was determined as 2.09.
